Like-named read-outs stand apart in the source and are kept apart here.
Columns and labels:
[1] = target: TSHR260-alkaline phosphatase (TSHR260-AP) (human) (UniProt P05187); assay: TSHR260-AP bridge ELISA, full length TSHR on wells; 1 µg/mL, diluted in HBD
[2] = target: human TSHR (wild type, full length) expressed in CHO cells (human) (UniProt P16473); assay: cell-based or functional assay
[3] = target: human TSH receptor (full length, wild type) expressed in CHO cells (human) (UniProt P16473); assay: cell-based or functional assay
[4] = target: human TSH receptor (full length, wild type) expressed in CHO cells (human) (UniProt P16473); assay: cell-based or functional assay; remark: listed apart in the source
[5] = target: TSHR260-alkaline phosphatase (TSHR260-AP) (human) (UniProt P05187); assay: TSHR260-AP bridge ELISA, full length TSHR on wells; 0.05 µg/mL, diluted in HBD
TSHR260-AP (human) [6] = assay: TSHR260-AP bridge ELISA (full length TSHR on wells, TSHR260-AP in solution); IgG 0.05 µg/mL diluted in assay buffer
[7] = target: human TSH receptor (full length, wild type) expressed in CHO cells (human) (UniProt P16473); assay: cell-based or functional assay; remark: listed apart in the source
TSHR260-AP (human) [8] = assay: TSHR260-AP bridge ELISA (full length TSHR on wells, TSHR260-AP in solution); IgG 0.1 µg/mL diluted in assay buffer
[9] = target: TSHR260-alkaline phosphatase (TSHR260-AP) (human) (UniProt P05187); assay: TSHR260-AP bridge ELISA, full length TSHR on wells; 0.01 µg/mL, diluted in HBD
TSHR260-AP (human) [10] = assay: TSHR260-AP bridge ELISA (full length TSHR on wells, TSHR260-AP in solution); IgG 0.01 µg/mL diluted in HBD serum
TSHR260-AP (human) [11] = assay: TSHR260-AP bridge ELISA (full length TSHR on wells, TSHR260-AP in solution); IgG 100 µg/mL diluted in HBD serum
[12] = target: human TSHR (wild type, full length) expressed in CHO cells (human) (UniProt P16473); assay: cell-based or functional assay; remark: listed apart in the source
TSHR260-AP (human) [13] = assay: TSHR260-AP bridge ELISA (full length TSHR on wells, TSHR260-AP in solution); IgG 250 µg/mL diluted in HBD serum
TSHR260-AP (human) [14] = assay: TSHR260-AP bridge ELISA (full length TSHR on wells, TSHR260-AP in solution); IgG 0.005 µg/mL diluted in assay buffer
[15] = target: TSHR260-alkaline phosphatase (TSHR260-AP) (human) (UniProt P05187); assay: TSHR260-AP bridge ELISA, full length TSHR on wells; 0.5 µg/mL, diluted in HBD
TSHR260-AP (human) [16] = assay: TSHR260-AP bridge ELISA (full length TSHR on wells, TSHR260-AP in solution); IgG 0.5 µg/mL diluted in assay buffer
[17] = target: TSHR260-alkaline phosphatase (TSHR260-AP) (human) (UniProt P05187); assay: TSHR260-AP bridge ELISA, full length TSHR on wells; 10 µg/mL, diluted in assay buffer
TSHR260-AP (human) [18] = assay: TSHR260-AP bridge ELISA (full length TSHR on wells, TSHR260-AP in solution); IgG 0.005 µg/mL diluted in HBD serum
TSHR260-AP (human) [19] = assay: TSHR260-AP bridge ELISA (full length TSHR on wells, TSHR260-AP in solution); IgG 1 µg/mL diluted in assay buffer
TSHR260-AP (human) [20] = assay: TSHR260-AP bridge ELISA (full length TSHR on wells, TSHR260-AP in solution); IgG 0.01 µg/mL diluted in assay buffer
TSHR260-AP (human) [21] = assay: TSHR260-AP bridge ELISA (full length TSHR on wells, TSHR260-AP in solution); IgG 0.5 µg/mL diluted in HBD serum
[22] = target: TSHR260-alkaline phosphatase (TSHR260-AP) (human) (UniProt P05187); assay: TSHR260-AP bridge ELISA, full length TSHR on wells; 0.05 µg/mL, diluted in assay buffer
[23] = target: TSHR260-alkaline phosphatase (TSHR260-AP) (human) (UniProt P05187); assay: TSHR260-AP bridge ELISA, full length TSHR on wells; 0.01 µg/mL, diluted in assay buffer
[24] = target: TSHR260-alkaline phosphatase (TSHR260-AP) (human) (UniProt P05187); assay: TSHR260-AP bridge ELISA, full length TSHR on wells; 100 µg/mL, diluted in HBD

B1: 5C9 IgG (antibody, from another filing, V domains shown)
VH: EVQLVESGGGLIQPGGSLRLSCAASGFTVSSNYMSWVRQAPGKGLEWVSVTYSGGSTSYADSVKGRFTISRDNSKNTLYLQMNSLRAEDTAVYYCARGGRYCSSISCYARSGCDYWGQGTLVTVSS
VL: AIQMTQSPSSLSASVGDRVTITCRASQSISNYLNWYQQKPGKAPKLLIYAASSLQSGVPSRFSGSGSGTDFTLTISSLQPEDFATYYCQQSYSSPSTTFGQGTKLEIK
B1 was tested, and the Mean absorbance at 405 nm (absorbance at 405 nm) [1] was 0.045, the % Inhibition of T8 serum stimulation; 0.01 µg/mL 5C9 IgG [2] was 0% and the % Inhibition of T8 serum stimulation; 0.1 µg/mL 5C9 IgG [2] was 91%. It also gave a % Inhibition of T8 serum stimulation; 1 µg/mL 5C9 IgG [2] of 96%, a % Inhibition of T8 serum stimulation; 10 µg/mL 5C9 IgG [2] of 97% and a % Inhibition of T8 serum stimulation; 100 µg/mL 5C9 IgG [2] of 97%. For the same binder, the Cyclic AMP concentration; 0.01 µg/mL 5C9 IgG + T8 [2] was 53.7 pmol/mL, the Cyclic AMP concentration; 0.1 µg/mL 5C9 IgG + T8 [2] was 4.6 pmol/mL and the Cyclic AMP concentration; 1 µg/mL 5C9 IgG + T8 [2] was 2.2 pmol/mL. For the same binder, the Cyclic AMP concentration; 10 µg/mL 5C9 IgG + T8 [2] was 1.7 pmol/mL, the Cyclic AMP concentration; 100 µg/mL 5C9 IgG + T8 [2] was 1.7 pmol/mL and the Cyclic AMP concentration; 100 µg/mL 5C9 IgG alone [2] was 1.2 pmol/mL. For the same binder, the % Inhibition; T4 serum + 100 µg/mL 5C9 IgG [3] was 97.6%, the % Inhibition; T5 serum + 100 µg/mL 5C9 IgG [3] was 98.3% and the % Inhibition; T6 serum + 100 µg/mL 5C9 IgG [3] was 97.8%. It also gave a Cyclic AMP concentration; 100 µg/mL 5C9 IgG alone [3] of 1.2 pmol/mL, a Cyclic AMP concentration; HBD + 100 µg/mL 5C9 IgG [3] of 1.8 pmol/mL and a Cyclic AMP concentration; T4 serum + 100 µg/mL 5C9 IgG [3] of 1.9 pmol/mL. The Cyclic AMP concentration; T5 serum + 100 µg/mL 5C9 IgG [3] was 1.1 pmol/mL, the Cyclic AMP concentration; T6 serum + 100 µg/mL 5C9 IgG [3] was 1.8 pmol/mL and the % Inhibition; T7 serum + 100 µg/mL 5C9 IgG [4] was 97.7%. The % Inhibition; T8 serum + 100 µg/mL 5C9 IgG [4] was 97.9%, the % Inhibition; T9 serum + 100 µg/mL 5C9 IgG [4] was 94.7% and the Cyclic AMP concentration; HBD + 100 µg/mL 5C9 IgG [4] was 2.7 pmol/mL. For the same binder, the Cyclic AMP concentration; T7 serum + 100 µg/mL 5C9 IgG [4] was 2.1 pmol/mL, the Cyclic AMP concentration; T8 serum + 100 µg/mL 5C9 IgG [4] was 1.8 pmol/mL and the Cyclic AMP concentration; T9 serum + 100 µg/mL 5C9 IgG [4] was 3 pmol/mL. For the same binder, the Mean absorbance at 405 nm (absorbance at 405 nm) [5] was -0.003, the Mean absorbance at 405 nm (absorbance at 405 nm) (TSHR260-AP (human) [6]) was -0.008 and the % Inhibition; T10 serum + 100 µg/mL 5C9 IgG [7] was 98.4%. The % Inhibition; T11 serum + 100 µg/mL 5C9 IgG [7] was 8.5%, the % Inhibition; T12 serum + 100 µg/mL 5C9 IgG [7] was 96.3% and the Cyclic AMP concentration; 100 µg/mL 5C9 IgG alone [7] was 0.9 pmol/mL. The Cyclic AMP concentration; HBD + 100 µg/mL 5C9 IgG [7] was 1.1 pmol/mL, the Cyclic AMP concentration; T10 serum + 100 µg/mL 5C9 IgG [7] was 0.9 pmol/mL and the Cyclic AMP concentration; T11 serum + 100 µg/mL 5C9 IgG [7] was 37.5 pmol/mL. The Cyclic AMP concentration; T12 serum + 100 µg/mL 5C9 IgG [7] was 1.6 pmol/mL, the Mean absorbance at 405 nm (absorbance at 405 nm) (TSHR260-AP (human) [8]) was -0.013 and the Mean absorbance at 405 nm (absorbance at 405 nm) [9] was 0.017. It also gave a Mean absorbance at 405 nm (absorbance at 405 nm) (TSHR260-AP (human) [10]) of 0.017, a Mean absorbance at 405 nm (absorbance at 405 nm) (TSHR260-AP (human) [11]) of 0.027 and a % Inhibition of T13 serum stimulation; 100 µg/mL 5C9 IgG [12] of 97.5%. For the same binder, the % Inhibition of T14 serum stimulation; 100 µg/mL 5C9 IgG [12] was 94.9%, the % Inhibition of T15 serum stimulation; 100 µg/mL 5C9 IgG [12] was 96.9% and the Cyclic AMP concentration; 100 µg/mL 5C9 IgG alone [12] was 0.9 pmol/mL. The Cyclic AMP concentration; HBD + 100 µg/mL 5C9 IgG [12] was 1 pmol/mL, the Cyclic AMP concentration; T13 serum + 100 µg/mL 5C9 IgG [12] was 1.2 pmol/mL and the Cyclic AMP concentration; T14 serum + 100 µg/mL 5C9 IgG [12] was 1.4 pmol/mL. The Cyclic AMP concentration; T15 serum + 100 µg/mL 5C9 IgG [12] was 1.6 pmol/mL, the Mean absorbance at 405 nm (absorbance at 405 nm) (TSHR260-AP (human) [13]) was 0.058 and the Mean absorbance at 405 nm (absorbance at 405 nm) (TSHR260-AP (human) [14]) was -0.009. The Mean absorbance at 405 nm (absorbance at 405 nm) [15] was 0.016, the Mean absorbance at 405 nm (absorbance at 405 nm) (TSHR260-AP (human) [16]) was -0.005 and the Mean absorbance at 405 nm (absorbance at 405 nm) [17] was 0.099. It also gave a Mean absorbance at 405 nm (absorbance at 405 nm) (TSHR260-AP (human) [18]) of 0.02, a Mean absorbance at 405 nm (absorbance at 405 nm) (TSHR260-AP (human) [19]) of 0.011 and a Mean absorbance at 405 nm (absorbance at 405 nm) (TSHR260-AP (human) [20]) of -0.001. For the same binder, the Mean absorbance at 405 nm (absorbance at 405 nm) (TSHR260-AP (human) [21]) was 0.016, the Mean absorbance at 405 nm (absorbance at 405 nm) [22] was -0.008 and the Mean absorbance at 405 nm (absorbance at 405 nm) [23] was -0.001. The Mean absorbance at 405 nm (absorbance at 405 nm) [24] was 0.027.

— US20110300138A1 (published 2011)
